# Measurements published in the RNAGym collection of RNA variant scans (doi:10.7554/elife.90254).
# B1: OR4K15 (parent)
# chain: GUUAACGGUCAUAGGCCAUGGAAACUAGGAGCACCAUUUCGCUGCCAGUGAAGAAAUGAACAAAGAAAAUCUGGGCCAGGCAGGCAUCAAAAGAAAUAGUCUUGCGCUCAACCAGAAAGUCUGUAAUCAUUUUAAGGGUA
# Variants of: B1
# Test: self-cleavage, relative activity (ratio to wild type); higher = more cleavage; in vitro, sequencing; the parent is a self-cleaving ribozyme
row,Variant,self-cleavage
1,GUUAACGGUCAUAGGCCAUGGAAACUAGGAGCACCAUUUCGCUGCCAGUGAAGAAAUGAACAAAGAAAAUCUGGGCCAGGCAGGCUUCAGAAGAAAUAGUCUUGCGCUCAACCAGAAAGUCUGUAAUCAUUUUAAGGGUA [A86U A90G],1.3
2,GUUAACGGUCAUAGGCCAUGGAAACUAGGAGCACCAUUUCGCUGCCAGUGAAGAAAUGAACAAAGAAAAUCUGGGCCAGGCAGGCUUCAAAAGAAAUAGUCUUGCGCUCAACCAGAAAGUCUGUGAUCAUUUUAAGGGUA [A86U A125G],0.95
3,GUUAACGGUCAUAGGCCAUGGAAACUAGGAGCACCAUUUCGCUGCCAGUGAAGAAAUGAACAAAGAAAAUCUGGGCCAGGCAGGCUUCAAAAGAAGUAGUCUUGCGCUCAACCAGAAAGUCUGUAAUCAUUUUAAGGGUA [A86U A96G],1.68
4,GUUAACGGUCAUAGGCCAUGGAAACUAGGAGCACCAUUUCGCUGCCAGUGAAGAAAUGAACAAAGAAAAUCUGGGCCAGGCAGGCUUCGAAAGAAAUAGUCUUGCGCUCAACCAGAAAGUCUGUAAUCAUUUUAAGGGUA [A86U A89G],2.16
5,GUUAACGGUCAUAGGCCAUGGAAACUAGGAGCACCAUUUCGCUGCCAGUGAAGAAAUGAACAAAGAAAAUCUGGGCCAGGCAGGCUUCAAAAGAAAUAGUCUUGUGCUCAACCAGAAAGUCUGUAAUCAUUUUAAGGGUA [A86U C105U],0.27
6,GUUAACGGUCAUAGGCCAUGGAAACUAGGAGCACCAUUUCGCUGCCAGUGAAGAAAUGAACAAAGAAAAUCUGGGCCAGGCAGGCUUCAAAAGAAAUAGUCUUGCGCUCAACCAGAAGGUCUGUAAUCAUUUUAAGGGUA [A86U A118G],1.33
7,GUUAACGGUCAUAGGCCAUGGAAACUAGGAGCACCAUUUCGCUGCCAGUGAAGAAAUGAACAAAGAAAAUCUGGGCCAGGCAGGCUUCAAAAGAGAUAGUCUUGCGCUCAACCAGAAAGUCUGUAAUCAUUUUAAGGGUA [A86U A95G],2.02
8,GUUAACGGUCAUAGGCCAUGGAAACUAGGAGCACCAUUUCGCUGCCAGUGAAGAAAUGAACAAAGAAAAUCUGGGCCAGGCAGGCUUCAAGAGAAAUAGUCUUGCGCUCAACCAGAAAGUCUGUAAUCAUUUUAAGGGUA [A86U A91G],1.93
9,GUUAACGGUCAUAGGCCAUGGAAACUAGGAGCACCAUUUCGCUGCCAGUGAAGAAAUGAACAAAGAAAAUCUGGGCCAGGCAGGCUUCAAAAGAAAUAGUCUUGCGCUCAACCAGAGAGUCUGUAAUCAUUUUAAGGGUA [A86U A117G],2.1
10,GUUAACGGUCAUAGGCCAUGGAAACUAGGAGCACCAUUUCGCUGCCAGUGAAGAAAUGAACAAAGAAAAUCUGGGCCAGGCAGGCUUCAAAAGAAAUAGUCUUGCGCUCAACCAGGAAGUCUGUAAUCAUUUUAAGGGUA [A86U A116G],0.59
11,GUUAACGGUCAUAGGCCAUGGAAACUAGGAGCACCAUUUCGCUGCCAGUGAAGAAAUGAACAAAGAAAAUCUGGGCCAGGCAGGCUUCAAAGGAAAUAGUCUUGCGCUCAACCAGAAAGUCUGUAAUCAUUUUAAGGGUA [A86U A92G],1.46
12,GUUAACGGUCAUAGGCCAUGGAAACUAGGAGCACCAUUUCGCUGCCAGUGAAGAAAUGAACAAAGAAAAUCUGGGCCAGGCAGGCGUCAAAAGAAAUAGUCUUGCGCUCAACCAGAAAGUCUGUAAUCACUUUAAGGGUA [A86G U130C],1.2
13,GUUAACGGUCAUAGGCCAUGGAAACUAGGAGCACCAUUUCGCUGCCAGUGAAGAAAUGAACAAAGAAAAUCUGGGCCAGGCAGGCGUCAAAAGAAAUAGUCUUGCGCUCAACCAGAAAGUCUGUAAUCAUUCUAAGGGUA [A86G U132C],1.16
14,GUUAACGGUCAUAGGCCAUGGAAACUAGGAGCACCAUUUCGCUGCCAGUGAAGAAAUGAACAAAGAAAAUCUGGGCCAGGCAGGCUUCAAAAGAAAUAGUCUUGCGCUUAACCAGAAAGUCUGUAAUCAUUUUAAGGGUA [A86U C109U],0.6
15,GUUAACGGUCAUAGGCCAUGGAAACUAGGAGCACCAUUUCGCUGCCAGUGAAGAAAUGAACAAAGAAAAUCUGGGCCAGGCAGGCUUCAAAAGAAAUAGUCUUGCGCUCAACCAGAAAGUCUGUAAUCAUUUUAUGGGUA [A86U A135U],2.32
16,GUUAACGGUCAUAGGCCAUGGAAACUAGGAGCACCAUUUCGCUGCCAGUGAAGAAAUGAACAAAGAAAAUCUGGGCCAGGCAGGCUUCAAAAGAAAUAGUCUUGCGCUCAACCAGAAAGUCUGUAAUCAUUUUAGGGGUA [A86U A135G],2.44
17,GUUAACGGUCAUAGGCCAUGGAAACUAGGAGCACCAUUUCGCUGCCAGUGAAGAAAUGAACAAAGAAAAUCUGGGCCAGGCAGGCUUCAAAAUAAAUAGUCUUGCGCUCAACCAGAAAGUCUGUAAUCAUUUUAAGGGUA [A86U G93U],2.01
18,GUUAACGGUCAUAGGCCAUGGAAACUAGGAGCACCAUUUCGCUGCCAGUGAAGAAAUGAACAAAGAAAAUCUGGGCCAGGCAGGCUUCAAAAGAAAUAGUCUUGCGCUCGACCAGAAAGUCUGUAAUCAUUUUAAGGGUA [A86U A110G],0.09
19,GUUAACGGUCAUAGGCCAUGGAAACUAGGAGCACCAUUUCGCUGCCAGUGAAGAAAUGAACAAAGAAAAUCUGGGCCAGGCAGGCUUCAAAAGAAAUAGUCUUGCGCUCCACCAGAAAGUCUGUAAUCAUUUUAAGGGUA [A86U A110C],0.36
20,GUUAACGGUCAUAGGCCAUGGAAACUAGGAGCACCAUUUCGCUGCCAGUGAAGAAAUGAACAAAGAAAAUCUGGGCCAGGCAGGCUUCAAAAGAAAUAGUCUUGCGCUCAACCUGAAAGUCUGUAAUCAUUUUAAGGGUA [A86U A114U],0.11
21,GUUAACGGUCAUAGGCCAUGGAAACUAGGAGCACCAUUUCGCUGCCAGUGAAGAAAUGAACAAAGAAAAUCUGGGCCAGGCAGGCUUCAAAAGAAAUAGUCUUGCGCUCAACCGGAAAGUCUGUAAUCAUUUUAAGGGUA [A86U A114G],1.22
